Experimental data published in patent publication US20230227838A1, “ENHANCED CELL SURVIVAL AGAINST BIOTIC AND ABIOTIC STRESSES THROUGH SALICYLICK ACID-INDUCED NPR1 CONDENSATES” (priority 2020, published 2023).

B1: VLN2, villin 2 (protein, UniProt O81644 1-976, looked up)
Villin-2: MSTKVLDPAFQGAGQKPGTEIWRIENFEAVPVPKSEHGKFYMGDTYIVLQTTQNKGGAYLFDIHFWIGKDTSQDEAGTAAVKTVELDAVLGGRAVQHREIQGHESDKFLSYFKPCIIPLEGGVASGFKTVEEEVFETRLYTCKGKRAIRLKQVPFARSSLNHDDVFILDTEEKIYQFNGANSNIQERAKALEVVQYLKDKYHEGTCDVAIVDDGKLDTESDSGAFWVLFGGFAPIGRKVANDDDIVPESTPPKLYCITDGKMEPIDGDLSKSMLENTKCYLLDCGAEIYIWVGRVTQVDERKAASQSAEEFLASENRPKATHVTRVIQGYESHSFKSNFDSWPSGSATPGNEEGRGKVAALLKQQGVGLKGIAKSAPVNEDIPPLLESGGKLEVWYVNGKVKTPLPKEDIGKLYSGDCYLVLYTYHSGERKDEYFLSCWFGKKSIPEDQDTAIRLANTMSNSLKGRPVQGRIYEGKEPPQFVALFQPMVVLKGGLSSGYKSSMGESESTDETYTPESIALVQVSGTGVHNNKAVQVETVATSLNSYECFLLQSGTSMFLWHGNQSTHEQLELATKVAEFLKPGITLKHAKEGTESSTFWFALGGKQNFTSKKASSETIRDPHLFSFAFNRGKFQVEEIYNFAQDDLLTEDIYFLDTHAEVFVWVGQCVEPKEKQTVFEIGQKYIDLAGSLEGLHPKVPIYKINEGNEPCFFTTYFSWDATKAIVQGNSFQKKASLLFGTHHVVEDKSNGGNQGLRQRAEALAALNSAFNSSSNRPAYSSQDRLNESHDGPRQRAEALAALSSAFNSSSSSTKSPPPPRPVGTSQASQRAAAVAALSQVLVAENKKSPDTSPTRRSTSSNPADDIPLTEAKDEEEASEVAGLEAKEEEEVSPAADETEAKQETEEQGDSEIQPSGATFTYEQLRAKSENPVTGIDFKRREAYLSEEEFQSVFGIEKEAFNNLPRWKQDLLKKKFDLF
B2: UBP14, ubiquitin-specific protease 14 (protein, UniProt Q8L6Y1 1-797, looked up)
Ubiquitin carboxyl-terminal hydrolase 14: MELLRSNLSRVQIPEPTHRIYKHECCISFDTPRSEGGLFVDMNSFLAFGKDYVSWNYEKTGNPVYLHIKQTRKSIPEDRPLKKPTLLAIGVDGGFDNNEPEYEESYSIVILPDFVSLPFPSVELPEKVRIAVDTVVNAVGAERKEQVAAWTAEKKLISEHALTLQQIKSGIVIPPSGWKCSKCDKTENLWLNLTDGMILCGRKNWDGTGGNNHAVEHYKETAYPLAVKLGTITADLEAADVYSYPEDDSVLDPLLAEHLAHFGIDFSSMQKTEMTTAERELDQNTNFDWNRIQESGKELVPVFGPGYTGLVNLGNSCYLAATMQIVFSTHSFISRYFSHQSLKMAFEMAPADPTLDLNMQLTKLGHGLLSGKYSMPATQKDATTGDPRQEGIPPRMFKNVIAASHAEFSSMRQQDALDFFLHLVGKVERASNTTPDLDPSRSFKFGIEEKILCPSGKVGYNKREDCILSLNIPLHEATNKDELEAFHKQKAGKGLEENDMRSSDEIVRPRVPLEACLANFASSEPIEDYYSSALKGMTTAIKTTGLTSFPDYLVLHMRKFVMEEGWVPKKLDVYIDVPDVIDISHMRSKGLQPGEELLPDGVPEEVMESAQPVANEEIVAQLVSMGFSQLHCQKAAINTSNAGVEEAMNWLLSHMDDPDIDAPISHQTSDIDQSSVDTLLSFGFAEDVARKALKASGGDIEKATDWVFNNPNASVSDMDVSSSNSAQTPAQSGLPDGGGKYKLFGIVSHMGTSVHCGHYVAHILKEGRWVIFNDDKVGISTDPPKDMGYVYFFQRLD
B3: CLIP-associated protein (protein, UniProt Q8RWY6 1-1439, looked up)
CLIP-associated protein: MEEALEMARAKDTKERMAAVERLHQLLEASRKSLSPAEVTSLVDSCLDLLKDSNFRVSQGALQALASAAVLAGEHLKLHLNALVPAVVERLGDSKQPVRDAARRLLTTLMEVSSPTIIVERAGSYAWMHKSWRVREEFARTVTSAIGLFASTELPLQRVILAPILQMLNDPNQAVREAAILCIEEMYMQGGSQFREELQRHHLPSYMVKDINARLERIEPQLRSTDGRSAHHVVNEVKASSVNPKKSSPRAKAPTRENSLFGGDADITEKPIEPIKVYSEKELIREFEKIAATLVPEKDWSMRISAMRRVEGLVAGGATDYSCFRGLLKQLVGPLSTQLADRRSTIVKQACHLLCLLSKELLGDFEACAETFIPVLFKLVVITVLVIAESADNCIKTMLRNCKAARVLPRIAESAKHDRNAILRARCCEYALLTLEHWPDAPEIQRSVDLYEDLIRCCVADAMSEVRATARMCYRMFAKTWPDRSRRLFSSFDPVIQRLINEEDGGIHRRHASPSVRERHSQPSFSQTSAPSNLPGYGTSAIVAMDRSSNLSSGGSLSSGLLLSQSKDVNKGSERSLESVLQSSKQKVSAIESMLRGLHISDRQNPAALRSSSLDLGVDPPSSRDPPFHAVAPASNSHTSSAAAESTHSINKGSNRNGGLGLSDIITQIQASKDSGRSSYRGNLLSESHPTFSSLTAKRGSERNERSSLEESNDAREVRRFMAGHFDRQQMDTAYRDLTFRESNASHVPNFQRPLLRKNVGGRMSAGRRRSFDDSQLQIGDISNFVDGPASLNEALNDGLNSSSDWCARVAAFNFLQTLLQQGPKGAQEVIQSFEKVMKLFLRHLDDPHHKVAQAALSTLADLIPSCRKPFESYMERVLPHVFSRLIDPKEVVRQPCSSTLEIVSKTYSVDSLLPALLRSLDEQRSPKAKLAVIEFAINSFNRYAGNPEISGNSGILKLWLAKLTPLTRDKNTKLKEASITCIISVYNHYDSAGLLNYILSLSVEEQNSLRRALKQYTPRIEVDLLNYMQSKKEKQRIKSYDPSDAIGTSSEEGYAGASKKNIFLGRYSGGSIDSDSGRKWSSSQEPTMITGGVGQNVSSGTQEKLYQNVRTGISSASDLLNPKDSDYTFASAGQNSISRTSPNGSSENIEILDDLSPPHLEKNGLNLTSVDSLEGRHENEVSRELDLGHYMLTSIKVNTTPESGPSIPQILHMINGSDGSPSSSKKSGLQQLIEASVANEESVWTKYFNQILTVVLEVLDDEDFSIKELALSLISEMLKSQKDAMEDSVEIVIEKLLHVSKDTVPKVSTEAEQCLTTVLSQYDPFRCLSVIVPLLVTEDEKTLVACINCLTKLVGRLSQEELMDQLSSFLPAVFEAFGSQSADVRKTVVFCLVDIYIMLGKAFLPYLEGLNSTQVRLVTIYANRISQARNGAPIDADT
B4: UBP24, ubiquitin-specific protease 24 (protein, UniProt Q9FPS3 1-551, looked up)
Ubiquitin carboxyl-terminal hydrolase 24: MSEKKVFVFGSFTEHETRSFFEQKPTKDPQNSKDKCVGSIQFGSLNLAAENSSVNTNGELKKGEADGTVKSAGSQERLDASRPASSDKNNDSDAKLPRKNSLRVPEHVVQNGIIKEISESNKSLNNGVAVKTDPIGLDNLSMSDGESDPVYKASSSKFQALDNEDFSSDSSSGSIQRKKNLKVPTESVPPVKDFTPRGLINAGNLCFLNATLQALLSCSPFVQLLQKIQLQDIPKADSPTLAAFSEFISELDVPSSSSIRNNVTVVEAGRPFRPAMFEGVLRNFTPDVLNNMSGRPRQEDAQEFLSFIMDQMHDELLKLKEQSPKVTASKSSVISSANDDGDEWETVGPKNKSAVTRTQSFVPSELSEIFGGQLKSVVKAKGTKASATVQPYLLLHLDIHPDGVQGIEDALHLFSAQEDLEGYRASVTGKTGVVSASKSIKIQKLSKIMILHLMRFSYGSQGSTKLRKGVKFPLELNLNRSHLVSLSNESLRYELVATITHHGWDPSKGHYTTDARRKNGQWLRFDDASVTPIGTKLVLHDQAYVLFYKQV
B5: atnudt5, NUDT5, nudix hydrolase homolog 5 (protein, UniProt Q9SJC6 1-302, looked up)
Nudix hydrolase 5: MGLTKNFAFLVFCCQRYCSMDGEAFEISLLDGEEDRFGGTVVNLMEVESMTIGDFDSKLDVSLKAWKDQGKKGIWIKLPSELSSLVDTAIKKGFTYHHAENEYVMLTFWLPEPPSTLPCNASHRIGIGAFVLNKNGEMLVVQENSGYFKDKNVWKVPTGTIKEGESIWAGAVREVKEETDIDAEFVEVLSFMESHQAVWQRKTDIFFVCELEARTFEIQKQDSEIHAAKWMPVEEYVNQPYHNKEGNEMFKLIANICLKRSREKYTGFVLTTNSAKKSLYCSVDHANLLKETADQASTSLSD
B6: NTF2B, nuclear transport factor 2B (protein, UniProt Q9C7F5 2-126, looked up)
Nuclear transport factor 2B: SQMDPDAVSKAFVEHYYSTFDTNRVGLAGLYQEASMLTFEGQKIQGVQSIVAKLTSLPFQQCKHHISTVDCQPSGPASGMLVFVSGNLQLAGEEHALKFSQMFHLMPTPQGSFYVFNDIFRLNYA
B7: SAE2, SUMO-activating enzyme 2 (protein, UniProt Q9SJT1 2-700, looked up)
SUMO-activating enzyme subunit 2: ATQQQQSAIKGAKVLMVGAGGIGCELLKTLALSGFEDIHIIDMDTIEVSNLNRQFLFRRSHVGQSKAKVARDAVLRFRPNINIRSYHANVKNPEFDVDFFKQFDVVLNGLDNLDARRHVNRLCLAADVPLVESGTTGFLGQVTVHIKGKTECYECQTKPAPKTYPVCTITSTPTKFVHCIVWAKDLLFAKLFGDKNQDNDLNVRSNNSASSSKETEDVFERSEDEDIEQYGRKIYDHVFGSNIEAALSNEETWKNRRRPRPIYSKDVLPESLTQQNGSTQNCSVTDGDLMVSAMPSLGLKNPQELWGLTQNSLVFIEALKLFFAKRKKEIGHLTFDKDDQLAVEFVTAAANIRAESFGIPLHSLFEAKGIAGNIVHAVATTNAIIAGLIVIEAIKVLKKDVDKFRMTYCLEHPSKKLLLMPIEPYEPNPACYVCSETPLVLEINTRKSKLRDLVDKIVKTKLGMNLPLIMHGNSLLYEVGDDLDDIMVANYNANLEKYLSELPSPILNGSILTVEDLQQELSCKINVKHRFFSEILNPVLNSVWFLIILPSTFPKLFHFTESRNQDGLSLDIILGFSNVTIRRVLTMFETGRRLTHPLLILFCHREEFDEEKEPEGMVLSGWTPSPATNGESASTSNNENPVDVTESSSGSEPASKKRRLSETEASNHKKETENVESEDDDIMEVENPMMVSKKKIRVE
B8: SINAT2, seven in absentia of Arabidopsis 2 (protein, UniProt Q9M2P4 1-308, looked up)
E3 ubiquitin-protein ligase SINAT2: MAPGGSALKEVMESNSTGMDYEVKTAKVEVNNNKPTKPGSAGIGKYGIHSNNGVYELLECPVCTNLMYPPIHQCPNGHTLCSNCKLRVQNTCPTCRYELGNIRCLALEKVAESLEVPCRYQNLGCHDIFPYYSKLKHEQHCRFRPYTCPYAGSECSVTGDIPTLVVHLKDDHKVDMHDGCTFNHRYVKSNPHEVENATWMLTVFNCFGRQFCLHFEAFQLGMAPVYMAFLRFMGDENEAKKFSYSLEVGAHGRKLTWQGIPRSIRDSHRKVRDSQDGLIIPRNLALYFSGGDRQELKLRVTGRIWKEE

Target: sim3-GFP (Arabidopsis thaliana) (UniProt P93002)
Sequence (P93002 other isoform, or with tags, fused parts or gaps): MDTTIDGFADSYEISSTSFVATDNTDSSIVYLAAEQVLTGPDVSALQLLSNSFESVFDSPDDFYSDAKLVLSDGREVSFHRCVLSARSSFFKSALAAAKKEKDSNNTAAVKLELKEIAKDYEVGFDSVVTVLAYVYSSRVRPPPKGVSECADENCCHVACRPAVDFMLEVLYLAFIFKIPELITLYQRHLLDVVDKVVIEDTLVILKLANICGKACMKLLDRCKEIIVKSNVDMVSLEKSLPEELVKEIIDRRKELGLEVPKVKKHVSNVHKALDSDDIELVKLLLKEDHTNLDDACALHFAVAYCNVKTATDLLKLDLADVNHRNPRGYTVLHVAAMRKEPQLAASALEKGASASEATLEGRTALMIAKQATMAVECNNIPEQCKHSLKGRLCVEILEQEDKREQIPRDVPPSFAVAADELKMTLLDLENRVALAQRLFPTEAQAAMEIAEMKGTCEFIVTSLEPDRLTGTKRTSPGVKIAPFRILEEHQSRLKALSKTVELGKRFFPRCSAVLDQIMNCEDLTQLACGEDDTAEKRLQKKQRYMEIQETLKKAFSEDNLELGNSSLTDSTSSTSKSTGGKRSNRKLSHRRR
Assay: sim3-GFP IP, LC-MS/MS

Going from B1 to B2, the Normalized Fold Change: SA vs Mock rises from 3.54 fold to 5.02 fold.

First: B3
Second: B4
The Normalized Fold Change: SA vs Mock of the first is lower: 2550 fold for the first, 2580 fold for the second.

First: B5
Second: B6
The Normalized Fold Change: SA vs Mock of the first is higher: 44.1 fold for the first, 11.2 fold for the second.

First: B7
Second: B8
The Normalized Fold Change: SA vs Mock of the first is higher: 5.82 fold for the first, 2.99 fold for the second.
